Where no end group is shown, it is not given here.
Target: T1, human angiotensin converting enzyme 2 (ACE2), recombinant (human, UniProt Q9BYF1 18-740)
T1 construct: also called soluble ACE2; recombinant ACE2 protein; source: bought: Sino Biological (Catalog number 10108-H08H) for BLI
Experiment: BLI; biotinylated peptide immobilised on streptavidin tips (loaded at 1.0-2.0 uM); protein in solution (ACE2 at 1000, 500, 250, 125 and 62.5 nM); 30 °C, 1000 rpm; 1 x PBS with 0.1% BSA and 0.02% Tween-20; 180 s association; global 1:1 fit; apparent KD
Settings: both partners purified

T1 sequence (Q9BYF1 18-740): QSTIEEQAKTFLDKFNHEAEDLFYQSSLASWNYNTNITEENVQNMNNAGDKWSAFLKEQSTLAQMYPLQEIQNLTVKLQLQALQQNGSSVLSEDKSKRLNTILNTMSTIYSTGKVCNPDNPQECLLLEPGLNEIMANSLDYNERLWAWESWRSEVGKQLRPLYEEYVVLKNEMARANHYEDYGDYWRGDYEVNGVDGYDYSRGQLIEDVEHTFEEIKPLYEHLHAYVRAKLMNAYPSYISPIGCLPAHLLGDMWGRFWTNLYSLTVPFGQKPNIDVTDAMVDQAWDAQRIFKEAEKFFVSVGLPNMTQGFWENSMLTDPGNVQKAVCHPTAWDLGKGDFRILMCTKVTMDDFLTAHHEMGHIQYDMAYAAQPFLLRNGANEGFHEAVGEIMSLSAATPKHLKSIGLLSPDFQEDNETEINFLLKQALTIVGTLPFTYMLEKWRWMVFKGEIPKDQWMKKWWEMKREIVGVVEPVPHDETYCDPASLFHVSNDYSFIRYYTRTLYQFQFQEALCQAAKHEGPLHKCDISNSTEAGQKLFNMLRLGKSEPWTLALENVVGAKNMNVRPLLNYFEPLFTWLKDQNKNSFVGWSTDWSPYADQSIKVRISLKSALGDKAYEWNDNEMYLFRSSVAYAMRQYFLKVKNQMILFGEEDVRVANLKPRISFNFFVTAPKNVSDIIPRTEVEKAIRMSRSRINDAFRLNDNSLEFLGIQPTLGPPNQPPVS

Binder | Kd [nM]
LHKQFGWHWFGFK-NH2 (also: biotinylated, position not given here) [ACE2-binding peptide ABP C3] | 35
LQWHPAYWFMQVK-NH2 (also: biotinylated, position not given here) [ACE2-binding peptide ABP C8] | 36
LQRGVFGFPYRVK-NH2 (also: biotinylated, position not given here) [ACE2-binding peptide ABP C7] | 26
